According to the supplement of paper PMC7125110:
± gives the standard error. For some of these results: Fewer inactive variants are shown than the library holds.

B1: glmS ribozyme (parent)
chain: AUAAAAGCGCCAGAACUACAGAAAUGUAGUUGACGAGGAGGAGGUUUAUCGAAUUUUCGGCGGAUGCCUCCAAA

Legend:
Conditions in all cases: with glucosamine-6-phosphate
glucosamine-6-phosphate [1] = variants of: B1; assay: kcat; higher = faster cleavage; RNA array
Method in brief: (§1)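 Glucosamine-6-phosphate, from 40 μM to 10 mM in HEPES/KCl/Mg(OAc)2 buffer, was flowed over sequenced MiSeq chips carrying barcoded ribozyme variants transcribed in situ by E. coli RNA polymerase. A hybridised Cy3 probe tracked the variants at 37 °C as tiles were imaged over ~14 h. kobs, kcat and KM were obtained by fitting normalised per-tile medians to exponential decays and then applying weighted Michaelis–Menten fits across concentrations.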

glucosamine-6-phosphate [2] = variants of: B1; assay: KM; higher = weaker cofactor use; RNA array
Method in brief: as §1

glucosamine-6-phosphate [3] = variants of: B1; assay: self-cleavage kobs at 40 uM GlcN6P; higher = faster cleavage; RNA array
Method in brief: as §1

glucosamine-6-phosphate [4] = variants of: B1; assay: self-cleavage kobs at 160 uM GlcN6P; higher = faster cleavage; RNA array
Method in brief: as §1

glucosamine-6-phosphate [5] = variants of: B1; assay: self-cleavage kobs at 640 uM GlcN6P; higher = faster cleavage; RNA array
Method in brief: as §1

glucosamine-6-phosphate [6] = variants of: B1; assay: self-cleavage kobs at 2500 uM GlcN6P; higher = faster cleavage; RNA array
Method in brief: as §1

glucosamine-6-phosphate [7] = variants of: B1; assay: self-cleavage kobs at 10000 uM GlcN6P; higher = faster cleavage; RNA array
Method in brief: as §1

Variant | kcat (glucosamine-6-phosphate [1]) [s⁻¹] | KM (glucosamine-6-phosphate [2]) [µM] | self-cleavage kobs at 40 uM GlcN6P (glucosamine-6-phosphate [3]) [s⁻¹] | self-cleavage kobs at 160 uM GlcN6P (glucosamine-6-phosphate [4]) [s⁻¹] | self-cleavage kobs at 640 uM GlcN6P (glucosamine-6-phosphate [5]) [s⁻¹] | self-cleavage kobs at 2500 uM GlcN6P (glucosamine-6-phosphate [6]) [s⁻¹] | self-cleavage kobs at 10000 uM GlcN6P (glucosamine-6-phosphate [7]) [s⁻¹]
G59C U69A | 2.45e-05 ± 5.3e-06 |  |  |  |  |  | 
A53U | 0.048 ± 0.0058 | 2500 ± 350 | 0.000782 ± 1.4e-05 | 0.00253 ± 0.00016 | 0.0093 ± 0.00029 | 0.0221 ± 0.00097 | 0.042 ± 0.0018
C58U C67A | 3.03e-05 ± 4.9e-06 |  | < 1e-05 |  |  |  | 3.07e-05 ± 7.8e-06
U56G A64U | 9.52e-05 ± 2.5e-05 |  |  | < 1e-05 |  | 3.01e-05 ± 1.5e-05 | 6.57e-05 ± 1.9e-05
U54C C58A | 0.000427 ± 0.0001 | 3720 ± 1300 |  |  | 6.93e-05 ± 1.1e-05 | 0.000153 ± 2.3e-05 | 0.000361 ± 7.7e-05
U54G A64G | 0.0237 ± 0.011 |  | 0.000837 ± 0.0001 | 0.00149 ± 0.00039 | 0.0071 ± 0.0013 | 0.0145 ± 0.0059 | 0.0227 ± 0.0052
U54G A64C | 0.000177 ± 1.8e-05 | 2030 ± 590 | < 1e-05 |  | 3.56e-05 ± 1.3e-05 | 0.000116 ± 2.4e-05 | 0.000143 ± 1.8e-05
U54A U69G | 6.78e-05 ± 1.1e-05 |  |  | 6.31e-05 ± 2.8e-05 | 9.07e-05 ± 1.8e-05 | 9.01e-05 ± 1.6e-05 | 5.62e-05 ± 8.3e-06
G60A | 2.13e-05 ± 1.7e-06 |  | < 1e-05 |  | < 1e-05 | 2.19e-05 ± 2.6e-06 | 1.98e-05 ± 1.2e-06
U55A A64G | 0.0275 ± 0.012 |  | 0.000991 ± 0.00014 | 0.00181 ± 0.00043 | 0.0094 ± 0.0023 | 0.0275 ± 0.0092 | 0.0227 ± 0.0054
U55A A64C | 0.000188 ± 3.5e-05 |  |  |  | 2.82e-05 ± 1.2e-05 | 0.000144 ± 2.3e-05 | 0.000149 ± 1.3e-05
U55C U65A | 0.00421 ± 0.00073 | 2040 ± 540 | 0.0001 ± 1.4e-05 | 0.00028 ± 7.3e-05 | 0.000826 ± 0.00017 | 0.00204 ± 0.00038 | 0.00379 ± 0.00046
U54G U55C | 0.00147 ± 0.0003 | 670 ± 280 |  | 0.00036 ± 8.1e-05 | 0.000646 ± 9.5e-05 | 0.0012 ± 0.00027 | 0.00156 ± 0.00037
U57A U65G | 4.49e-05 ± 7.1e-06 |  | < 1e-05 |  |  | 4.6e-05 ± 1.3e-05 | 3.88e-05 ± 1.2e-05
U56A G66U | 0.000875 ± 6.7e-05 | 2780 ± 350 |  | 5.15e-05 ± 8.2e-06 | 0.000164 ± 1.8e-05 | 0.000378 ± 4.5e-05 | 0.000712 ± 6.7e-05
U54A A64U | 0.000124 ± 1.2e-05 |  |  |  | 7.79e-05 ± 2.6e-05 | 7.51e-05 ± 2.5e-05 | 0.00012 ± 1.1e-05
C58A C71G | 3.85e-05 ± 8.3e-06 |  | < 1e-05 |  | 3.58e-05 ± 1.5e-05 | 4.63e-05 ± 1.1e-05 | 2.57e-05 ± 1.2e-05

Variant | kcat (glucosamine-6-phosphate [1]) [s⁻¹] | KM (glucosamine-6-phosphate [2]) [µM] | self-cleavage kobs at 40 uM GlcN6P (glucosamine-6-phosphate [3]) [s⁻¹] | self-cleavage kobs at 160 uM GlcN6P (glucosamine-6-phosphate [4]) [s⁻¹] | self-cleavage kobs at 640 uM GlcN6P (glucosamine-6-phosphate [5]) [s⁻¹] | self-cleavage kobs at 2500 uM GlcN6P (glucosamine-6-phosphate [6]) [s⁻¹] | self-cleavage kobs at 10000 uM GlcN6P (glucosamine-6-phosphate [7]) [s⁻¹]
U57A C70U | 0.000272 ± 5.5e-05 | 2300 ± 790 |  | 5.07e-05 ± 2.3e-05 | 5.92e-05 ± 7.8e-06 | 0.000133 ± 1.9e-05 | 0.000234 ± 3.8e-05
U57A C70A | 1.98e-05 ± 3.5e-06 |  |  |  |  |  | 
U54G C58U C67U | 4.43e-05 ± 9.6e-06 |  |  |  |  | 5.48e-05 ± 1.7e-05 | 3.78e-05 ± 1.2e-05
C58G A64G | 0.000129 ± 2.7e-05 |  |  |  | 6.72e-05 ± 2.7e-05 | 6.74e-05 ± 1.2e-05 | 0.000115 ± 1.7e-05
U56A C61G | < 1e-05 |  |  |  |  |  | 
U54G G60C C68G | 3.07e-05 ± 1.4e-05 |  |  |  |  |  | 
U54A C68A | 5.71e-05 ± 2e-05 |  |  | 4.94e-05 ± 1.5e-05 | 7.98e-05 ± 1.5e-05 | 7.88e-05 ± 1.1e-05 | 
G60C C71A | < 1e-05 |  | < 1e-05 |  |  |  | 
U56C C68G | < 1e-05 |  |  | < 1e-05 |  |  | < 1e-05
U54G U65A | 0.00375 ± 0.00091 | 2250 ± 730 | 9.07e-05 ± 1.5e-05 | 0.000213 ± 3.8e-05 | 0.0008 ± 0.00014 | 0.00199 ± 0.00034 | 0.00315 ± 0.00065
U55C U57C | 9.84e-05 ± 1.9e-05 |  |  |  |  | 8.25e-05 ± 1.9e-05 | 8.27e-05 ± 1.2e-05
U55A C58G | 0.00041 ± 0.00019 |  |  |  | 2.55e-05 ± 1.3e-05 | 4.69e-05 ± 1.5e-05 | 0.000153 ± 2.5e-05
A53U A64U | 6.7e-05 ± 2e-06 | 1330 ± 190 | < 1e-05 |  |  | 4.18e-05 ± 1.2e-05 | 5.95e-05 ± 7.3e-06
G60C C68G | 1.2e-05 ± 1.5e-06 |  |  |  |  |  | 
G60C C68U | < 1e-05 |  |  | < 1e-05 |  |  | 
C58A C70G | 5.06e-05 ± 4.7e-06 | 91.6 ± 44 |  | 3.59e-05 ± 1.2e-05 | 3.65e-05 ± 1.3e-05 | 5.19e-05 ± 1.1e-05 | 
U57A A64U | < 1e-05 |  | < 1e-05 |  |  |  | < 1e-05
